Results: patent US8114968 (DYAX, dated 2012)
Where a chain is given by its changes, count along the chain named.

B1: 539A-M0013-G12 Fab (Fab, V domains shown)
VH: EVQLLESGGGLVQPGGSLRLSCAASGFTFSWYHMFWVRQAPGKGLEWVSGISSSGGYTHYADSVKGRFTISRDNSKNTLYLQMNSLRAEDTAVYYCATREGMLYDYVWGENYMDVWGKGTTVTVSS
VL: DIQMTQSPSSLSASVGDRVTITCQASQDTYNRLHWYQQKPGKAPKLLIYDAVNLNRGVPSRFRGSGSGTNYILIITNLQPEDTATYYCQHSDDLSLAFGGGTKVEIK
B2: 539A-M0016-H05 Fab (Fab, V domains shown)
VH: EVQLLESGGGLVQPGGSLRLSCAASGFTFSWYAMSWVRQAPGKGLEWVSRIVPSGGDTGYADSVKGRFTISRDNSKNTLYLQMNSLRAEDTAVYYCATFRGIMYGDYGSSYWYFDLWGRGTLVTVSS
VL: DIQMTQSPATLSLSPGERATLSCRASQSVSSYLAWYQQKPGQAPRLLIYDASNRATGIPARFSGSGSGTDFTLTISSLEPEDFAVYYCQQRSNWPLTFGGGTKVEIK
B3: 539A-M0016-H05 IgG (antibody, V domains shown)
VH: B2 VH
VL: B2 VL
B4: 539A-M0014-C09 IgG (antibody, V domains shown)
VH: EVQLLESGGGLVQPGGSLRLSCAASGFTFSDYSMHWVRQAPGKGLEWVSGIGPSGGPTFYADSVKGRFTISRDNSKNTLYLQMNSLRAEDTAVYYCARGEYSSSDYYYYYGMDVWGQGTTVTVSS
VL: DIQMTQSPATLSLSPGERATLSCGASQNIDGYYLAWYQQKPGQAPSLLIYDASSRSTGVPDRFSGSGSGTDFTLTISRLEPEDFAVYYCQHYGNSLWTFGQGTKVEIK
B5: 539A-M0014-C09 Fab (Fab, V domains shown)
VH: B4 VH
VL: B4 VL
B6: 539A-M0014-G11 Fab (Fab, V domains shown)
VH: EVQLLESGGGLVQPGGSLRLSCAASGFTFSWYVMVWVRQAPGKGLEWVSSIYSSGGPTKYADSVKGRFTISRDNSKNTLYLQMNSLRAEDTAVYYCAKEGGVYGGPELYYYYYGMDVWGQGTTVTVSS
VL: QYELTQPPSASGTPGQRITISCSGSSSNLGSNPVQWYQQLPGSAPKLLIHTNTHRPSGVPDRFSGSKSVTSASLAISGLQSEDEAEYYCATWDDSLNGGVFGGGTKLTVL
B7: 539A-M0014-G11 IgG (antibody, V domains shown)
VH: B6 VH
VL: B6 VL
B8: 539A-M0016-A11 Fab (Fab, V domains shown)
VH: EVQLLESGGGLVQPGGSLRLSCAASGFTFSEYQMAWVRQAPGKGLEWVSSIYPSGGHTHYADSVKGRFTISRDNSKNTLYLQMNSLRAEDTAVYYCAKESYYDFWSGYYFDYWGQGTLVTVSS
VL: DIQMTQSPSSLSASVRDRVTITCRTSQNINTYLNWYYQAPGRAPKLLIFGVSSLHRGVSSRFSGSGDGTEFTLTISSLQPEDIGTYFCQQSYSSPWTFGQGTKVEIK
B9: 539A-M0020-B01 Fab (Fab, V domains shown)
VH: EVQLLESGGGLVQPGGSLRLSCAASGFTFSHYVMHWVRQAPGKGLEWVSYIGSSGGETRYADSVKGRFTISRDNSKNTLYLQMNSLRAEDTAVYYCARADYGDYDYYYYYGMDVWGQGTTVTVSS
VL: QYELTQPPSVSVAPGQTATITCEGNNIASKSVHWYQQKPGQAPVLVVYDDRDRPSGISERISGSNSGNTPTLTIFRVEAGDEADYYCQVSDSATDHRVFGGGTKLTVL
B10: 539A-M0020-B01 IgG (antibody, V domains shown)
VH: B9 VH
VL: B9 VL
B11: 539A-M0027-E11 Fab (Fab, V domains shown)
VH: B9 VH with V33E, H35E, Y50S, G52S, E57P, R59M, A99G, D100M, Y106F
VL: DIQMTQSPDTLSLSPGERGTLSCRASQSLSSSYLAWYQQKPGQAPRLLIYDASSRATGIPDRFSGSGSGTDFTLTIGRLEPEDSAVYYCQQYGSFPLTFGGGTKVEIK
B12: 539A-M0027-E11 IgG (antibody, V domains shown)
VH: B9 VH with V33E, H35E, Y50S, G52S, E57P, R59M, A99G, D100M, Y106F
VL: B11 VL
B13: 539A-M0013-H06 Fab (Fab, V domains shown)
VH: EVQLLESGGGLVQPGGSLRLSCAASGFTFSAYEMDWVRQAPGKGLEWVSGISSSGGPTYYADSVKGRFTISRDNSKNTLYLQMNSLRAEDTAVYYCARVGGWELLQDYYYYMDVWGKGTTVTVSS
VL: DIQMTQSPATLSLSPGERATLSCRASHSVDNLAWYQQQPGQAPRLLIYDVSYRATGIPARFSGSGSGTDFTLTISSLEPEDFAVYYCQQRNNWPLSLTFGGGTKVEIK
B14: 539A-M0019-C05 Fab (Fab, V domains shown)
VH: EVQLLESGGGLVQPGGSLRLSCAASGFTFSWYAMVWVRQAPGKGLEWVSYIGSSGGVTGYADSVKGRFTISRDNSKNTLYLQMNSLRAEDTAVYYCARQKRVDYYDSSGYPTNAEFDYWGQGTLVTVSS
VL: QYELTQPRSVSGSPGQSVTISCTGSSSDVAGFYYVSWYQQHPGKAPKLMIRDVNDRPSGVSNRFSGSKSGNTASLTIAGLQTEDEAVYYCSSTSRSDTRVIFGGGTKLTV
B15: 539A-M0019-C05 IgG (antibody, V domains shown)
VH: B14 VH
VL: B14 VL
B16: 539A-M0022-C07 Fab (Fab, V domains shown)
VH: EVQLLESGGGLVQPGGSLRLSCAASGFTFSIYQMWWVRQAPGKGLEWVSSISSSGFTWYADSVKGRFTISRDNSKNTLYLQMNSLRAEDTAVYYCTTEDIGYYYGMDVWGQGTTVTVSS
VL: DIQMTQSPATLSVSPGERATLSCRASQNVRNYLAWYQQKPGQAPRLLIYDASKRATGIPARFSGSGSGTDFTLTISGLEPEDFAVYYCQQRSNWPTFGPGTKVDIK
B17: 539A-M0022-C07 IgG (antibody, V domains shown)
VH: B16 VH
VL: B16 VL
B18: 539A-M0013-D11 Fab (Fab, V domains shown)
VH: EVQLLESGGGLVQPGGSLRLSCAASGFTFSSYPMWWVRQAPGKGLEWVSGIVPSGGVTIYADSVKGRFTISRDNSKNTLYLQMNSLRAEDTAVYYCARVGWLASSDYYYYMDVWGKGTTVTVSS
VL: DIQMTQSPSSLSASVGDRITISCQASQDIDNYLNWYQQRSGKAPKLLIYDAYNLKAGVPSRFRGSRSGTDFFLTISSLQPEDFATYYCQQSYRAPLTFGGGTKVEIK
B19: 539B-M0065-E12 (Fab, V domains shown)
VH: EVQLLESGGGLVQPGGSLRLSCAASGFTFSWYNMHWVRQAPGKGLEWVSGISPSGGNTMYADSVKGRFTISRDNSKNTLYLQMNSLRAEDTAVYYCAKDIRGAYSSGLFDYWGRGTLVTVSS
VL: DIQMTQSPSSLSASVGDRVTITCRANQSIYTYLNWYQQKPGKAPELLIYAASSLQSGVPSRFSGSGSGTDFTLTISSLQPEDFATYYCQQAGIFGQGTKLEIK
B20: 539B-M0065-G03 (Fab, V domains shown)
VH: B19 VH with N33G, H35G, G50V, S52V, P53S, N57F, M59Q
VL: B19 VL
B21: 539B-M0071-D09 (Fab, V domains shown)
VH: B19 VH with W31P, N33W, P53S, N57D, M59L
VL: B19 VL
B22: 539B-M0069-D10 (Fab, V domains shown)
VH: B19 VH with W31L, N33H, S52G, N57W, M59I
VL: B19 VL
B23: 539B-M0071-H03 (Fab, V domains shown)
VH: B19 VH with W31P, N33W, S52G, N57P, M59F, V64I
VL: B19 VL
B24: 539B-M0067-B06 (Fab, V domains shown)
VH: B19 VH with N33W, S52V, P53S, N57T, M59I
VL: B19 VL
B25: 539B-M0069-C02 (Fab, V domains shown)
VH: B19 VH with W31Y, S52G, N57G, M59L
VL: B19 VL
B26: 539B-M0065-H05 (Fab, V domains shown)
VH: B19 VH with W31Y, N33G, H35G, G50V, P53S, N57F, M59F
VL: B19 VL

Molecular target: T1, human MMP-12 (human, UniProt P39900 106-470, limits assumed)
T1 sequence (P39900 106-470 limits assumed): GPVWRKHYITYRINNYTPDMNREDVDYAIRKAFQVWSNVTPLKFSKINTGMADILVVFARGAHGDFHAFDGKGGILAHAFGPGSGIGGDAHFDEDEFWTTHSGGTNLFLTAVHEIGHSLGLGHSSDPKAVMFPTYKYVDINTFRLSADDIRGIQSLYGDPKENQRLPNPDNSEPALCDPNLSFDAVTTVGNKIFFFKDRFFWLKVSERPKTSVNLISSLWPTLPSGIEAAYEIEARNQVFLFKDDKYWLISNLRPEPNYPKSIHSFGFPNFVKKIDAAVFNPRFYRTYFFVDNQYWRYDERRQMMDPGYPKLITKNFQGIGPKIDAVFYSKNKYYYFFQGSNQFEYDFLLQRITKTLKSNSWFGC
Assay: cell-based or functional assay

| Binder | IC50 (nM), large scale purified Fabs [nM] | IC50 (nM), IgGs [nM] |
| --- | --- | --- |
| B1 | 6.7 |  |
| B2 | 56.6 |  |
| B3 |  | 32.9 |
| B4 |  | 43.3 |
| B5 | 36.9 |  |
| B6 | 35 |  |
| B7 |  | 12.3 |
| B8 | 8.8 |  |
| B9 | 74.8 |  |
| B10 |  | 34.6 |
| B11 | 23.9 |  |
| B12 |  | 23.7 |
| B13 | 11.9 |  |
| B14 | 93 |  |
| B15 |  | 24.5 |
| B16 | 24.2 |  |
| B17 |  | 13.2 |
| B18 | 20.3 |  |

Molecular target: murine MMP-12 (mouse, UniProt P34960 110-473, limits assumed)
Sequence (P34960 110-473 limits assumed): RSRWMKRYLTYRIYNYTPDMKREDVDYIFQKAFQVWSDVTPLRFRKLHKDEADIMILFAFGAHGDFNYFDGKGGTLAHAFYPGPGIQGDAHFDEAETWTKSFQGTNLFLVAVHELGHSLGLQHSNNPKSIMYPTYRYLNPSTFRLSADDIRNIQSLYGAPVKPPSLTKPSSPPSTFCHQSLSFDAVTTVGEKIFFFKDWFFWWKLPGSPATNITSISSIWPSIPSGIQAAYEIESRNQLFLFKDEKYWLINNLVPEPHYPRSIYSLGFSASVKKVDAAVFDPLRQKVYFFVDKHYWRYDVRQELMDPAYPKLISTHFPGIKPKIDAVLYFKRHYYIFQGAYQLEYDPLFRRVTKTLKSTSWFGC
Assay: cell-based or functional assay

| Binder | IC50 m |
| --- | --- |
| B19 | < 10 nM (not printed; inferred) |
| B20 | < 10 nM (not printed; inferred) |
| B21 | < 10 nM (not printed; inferred) |
| B22 | < 10 nM (not printed; inferred) |
| B23 | < 10 nM (not printed; inferred) |
| B24 | < 10 nM (not printed; inferred) |
| B25 | ~10 nM (not printed; inferred) |

Molecular target: T1, human MMP-12
Assay: cell-based or functional assay
Remark: another data set of the same source

| Binder | IC50hu [nM] |
| --- | --- |
| B26 | 0.7 |
| B19 | 1.4 |
| B20 | 3 |
| B21 | 2.4 |
| B22 | 2.3 |
| B23 | 0.2 |
| B24 | 0.7 |
| B25 | 1.6 |

Molecular target: T1, human MMP-12
Assay: BIACORE, coated Fab

| Binder | Kd [nM] |
| --- | --- |
| B26 | 2.19 |
| B23 | 1.03 |
| B24 | 0.62 |
| B25 | 6.97 |
